According to patent US20100190698A1 (PHYLOGICA, published 2010):

Molecular target: c-Jun (Jun dimers as AP-1 moieties, endogenous in K562/AP1-Luc cells) (UniProt P05412 1-331)
Assay: cell-based or functional assay

Sequence of c-Jun (Jun dimers as AP-1 moieties, endogenous in K562/AP1-Luc cells) (P05412 whole entry): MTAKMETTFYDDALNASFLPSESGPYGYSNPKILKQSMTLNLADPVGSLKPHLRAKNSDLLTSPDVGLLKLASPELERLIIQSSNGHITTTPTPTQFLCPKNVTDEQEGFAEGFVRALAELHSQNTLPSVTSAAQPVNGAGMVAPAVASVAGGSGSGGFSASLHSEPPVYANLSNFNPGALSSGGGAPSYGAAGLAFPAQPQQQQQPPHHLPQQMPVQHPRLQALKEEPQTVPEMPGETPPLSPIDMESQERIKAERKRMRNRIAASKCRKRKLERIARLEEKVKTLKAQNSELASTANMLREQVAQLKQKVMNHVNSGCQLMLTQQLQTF

Binder	AP-1 reporter activity (luciferase, K562/AP1-Luc cells), of the level observed for the control sample
RSDYKDDDDKAYQSIRSGGIESSSKRER [PYC35]	~35 % of control
RSDYKDDDDKGLQGRRRQGYQSIKP [PYC36]	~44 % of control
RSDYKDDDDKGLQGRRQPGQQPQGRWSGRALPAHR [PYC38/39]	~47 % of control
RSDYKDDDDKVSINQEHHRLLPL [PYC41]	~48 % of control
